Publication PMC11574045, “A cofactor-induced repressive type of transcription factor condensation can be induced by synthetic peptides to suppress tumorigenesis” (The EMBO Journal, 2024)

Each molecule was assayed on HEK293FT cells transfected with TF library (assay: Screening of TF condensates based on fluorescent puncta). Conditions: Figure 1B numerical data; TF library screen, one value per transcriptional factor.
Assay type: cell-based
Procedure, shortened: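 Puncta scoring used automated confocal imaging of fifty random fields per well, after anti-Flag or anti-GAL4 immunofluorescence (Alexa 488) in PFA-fixed cells. HEK293FT cells carried TF library plasmids delivered with PEI (1.6 μg/ml DNA). At 60 h they were switched for 12 h to glucose-containing or glucose-free medium.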

Molecule	Z score of condensed fraction
BNC2 (protein, UniProt Q6ZN30 1-1099, looked up) Zinc finger protein …: MAHLGPTPPPHSLNYKSEDRLSEQDWPAYFKVPCCGVDTSQIESEEAEVDVRERETQRDREPKRARDLTLRDSCTDNSMQFGTRTTTAEPGFMGTWQNADTNLLFRMSQQAIRCTLVNCTCECFQPGKINLRTCDQCKHGWVAHALDKLSTQHLYHPTQVEIVQSNVVFDISSLMLYGTQAVPVRLKILLDRLFSVLKQEEVLHILHGLGWTLRDYVRGYILQDAAGKVLDRWAIMSREEEIITLQQFLRFGETKSIVELMAIQEKEGQAVAVPSSKTDSDIRTFIESNNRTRSPSLLAHLENSNPSSIHHFENIPNSLAFLLPFQYINPVSAPLLGLPPNGLLLEQPGLRLREPSLSTQNEYNESSESEVSPTPYKNDQTPNRNALTSITNVEPKTEPACVSPIQNSAPVSDLTKTEHPKSSFRIHRMRRMGSASRKGRVFCNACGKTFYDKGTLKIHYNAVHLKIKHRCTIEGCNMVFSSLRSRNRHSANPNPRLHMPMLRNNRDKDLIRATSGAATPVIASTKSNLALTSPGRPPMGFTTPPLDPVLQNPLPSQLVFSGLKTVQPVPPFYRSLLTPGEMVSPPTSLPTSPIIPTSGTIEQHPPPPSEPVVPAVMMATHEPSADLAPKKKPRKSSMPVKIEKEIIDTADEFDDEDDDPNDGGAVVNDMSHDNHCHSQEEMSPGMSVKDFSKHNRTRCISRTEIRRADSMTSEDQEPERDYENESESSEPKLGEESMEGDEHIHSEVSEKVLMNSERPDENHSEPSHQDVIKVKEEFTDPTYDMFYMSQYGLYNGGGASMAALHESFTSSLNYGSPQKFSPEGDLCSSPDPKICYVCKKSFKSSYSVKLHYRNVHLKEMHVCTVAGCNAAFPSRRSRDRHSANINLHRKLLTKELDDMGLDSSQPSLSKDLRDEFLVKIYGAQHPMGLDVREDASSPAGTEDSHLNGYGRGMAEDYMVLDLSTTSSLQSSSSIHSSRESDAGSDEGILLDDIDGASDSGESAHKAEAPALPGSLGAEVSGSLMFSSLSGSNGGIMCNICHKMYSNKGTLRVHYKTVHLREMHKCKVPGCNMMFSSVRSRNRHSQNPNLHKNIPFTSVD	-0.9038
TRIM32 (protein, UniProt Q8CH72 1-655, looked up) E3 ubiquitin-protein ligase …: MAAAAAASHLNLDALREVLECPICMESFTEEQLRPKLLHCGHTICRQCLEKLLASSINGVRCPFCSKITRITSLTQLTDNLTVLKIIDTAGLSEAVGLLMCRGCGRRLPRQFCRSCGVVLCEPCREADHQPPGHCTLPVKEAAEERRRDFGEKLTRLRELTGELQRRKAALEGVSRDLQARYKAVLQEYGHEERRIQEELARSRKFFTGSLAEVEKSNSQVVEEQSYLLNIAEVQAVSRCDYFLAKIKQADVALLEETADEEEPELTASLPRELTLQDVELLKVGHVGPLQIGQAVKKPRTVNMEDSWAGEEGAASSASASVTFREMDMSPEEVAPSPRASPAKQRSSEAASGIQQCLFLKKMGAKGSTPGMFNLPVSLYVTSQSEVLVADRGNYRIQVFNRKGFLKEIRRSPSGIDSFVLSFLGADLPNLTPLSVAMNCHGLIGVTDSYDNSLKVYTMDGHCVACHRSQLSKPWGITALPSGQFVVTDVEGGKLWCFTVDRGAGVVKYSCLCSAVRPKFVTCDAEGTVYFTQGLGLNVENRQNEHHLEGGFSIGSVGPDGQLGRQISHFFSENEDFRCIAGMCVDARGDLIVADSSRKEILHFPKGGGYSVLIREGLTCPVGIALTPKGQLLVLDCWDHCVKIYSYHLRRYSTP	-0.9694
TRIB3 (protein, UniProt Q96RU7 1-358, looked up) Tribbles homolog 3: MRATPLAAPAGSLSRKKRLELDDNLDTERPVQKRARSGPQPRLPPCLLPLSPPTAPDRATAVATASRLGPYVLLEPEEGGRAYQALHCPTGTEYTCKVYPVQEALAVLEPYARLPPHKHVARPTEVLAGTQLLYAFFTRTHGDMHSLVRSRHRIPEPEAAVLFRQMATALAHCHQHGLVLRDLKLCRFVFADRERKKLVLENLEDSCVLTGPDDSLWDKHACPAYVGPEILSSRASYSGKAADVWSLGVALFTMLAGHYPFQDSEPVLLFGKIRRGAYALPAGLSAPARCLVRCLLRREPAERLTATGILLHPWLRQDPMPLAPTRSHLWEAAQVVPDGLGLDEAREEEGDREVVLYG	-0.9785
